The Kd is a measure of binding affinity in units of concentration.

The values that follow come from paper PMC7042354, “Distinct surfaces on Cdc5/PLK Polo-box domain orchestrate combinatorial substrate recognition during cell division” (Scientific Reports, 2020).

One assay has as its system cdc5-S630Q mutant. Put plainly: Proliferation assay (spot dilution) of cdc5 mutants with DNA damaging agents. The assay is classed as cell-based, Saccharomyces cerevisiae. As to conditions: 0.4 μM 4-NQO on YPAD, 23 °C, n = 5. The method, then:
All yeast strains used in this study were constructed in the W303 background and their relevant genotypes are summarized in (Supplemental Table 2). Standard conditions and procedures were used for yeast growth, sporulation and tetrad dissection. Growth of temperature-sensitive (ts) mutants in liquid media was performed at 23 °C (permissive temperature) and 37 °C (non-permissive temperature).
The temperature-sensitive (ts) growth behavior of cdc5 mutants was monitored on solid YPAD medium at the following temperatures: 23, 30 and 37.5 °C. Their sensitivity to DNA replication inhibitors and DNA damaging agents was assessed at 23 °C on YPAD medium containing either 100 mM hydroxyurea (HU) or 0.4 μM 4-nitroquinoline N-oxide (4-NQO). In all cases, cultures of yeast strains were diluted fivefold and subsequently spotted on solid medium, using a starting OD600 of 0.2 in the first dilution. Yeast were allowed to grow for approximately 36–72 hours at the indicated temperatures prior to scanning plates. The experiment was repeated 5 times (n = 5).

In assay [1] the target is T1, polo-box domain of Cdc5 (residues 418–705) (Saccharomyces cerevisiae, UniProt P32562 418-705).
T1 construct: Cdc5, Polo-like kinase of Saccharomyces cerevisiae, residues 418-705 (polo-box domain with the preceding extension), subcloned in pPROEX HTa; Residues 418-459 disordered in the crystal; loop 594-601 possibly cleaved during crystallization of the apo form; also called Cdc5^PBD; PBD of Cdc5
T1 sequence (looked up): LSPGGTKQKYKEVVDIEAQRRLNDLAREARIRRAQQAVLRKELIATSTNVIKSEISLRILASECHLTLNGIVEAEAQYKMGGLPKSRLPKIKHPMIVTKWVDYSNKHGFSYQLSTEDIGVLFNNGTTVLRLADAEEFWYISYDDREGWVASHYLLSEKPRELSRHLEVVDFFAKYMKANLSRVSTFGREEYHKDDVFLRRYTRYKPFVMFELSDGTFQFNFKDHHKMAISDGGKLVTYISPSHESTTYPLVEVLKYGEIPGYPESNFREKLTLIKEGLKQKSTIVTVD
Put plainly: ITC; Nano ITC; 30 µM protein in the chamber cell, 280 µM peptide in the syringe; storage buffer (50 mM TRIS-HCl pH 7.0, 200 mM NaCl, 1.4 mM 2-mercaptoethanol, 5% glycerol) with 20 mM EDTA pH 8.0. As to conditions: both partners purified. (In ITC the heat of successive injections is recorded.)

The target of assay [2] is T1, polo-box domain of Cdc5 (residues …). Put plainly: crystal structure; Cdc5 polo-box domain (5 mg/mL) mixed with Spc72^P at 1:15 protein:peptide, overnight at 4 °C; crystals in 100 mM Bis-TRIS pH 6.5, 25% PEG3350, 200 mM MgCl2, 100 mM CsCl. As to conditions: both partners purified.
The target is the same in assay [3]. Kind of assay: crystal structure; Cdc5 polo-box domain (5 mg/mL) mixed with Dbf4 peptide at 1:10 protein:peptide, overnight at 4 °C; crystals in 20% PEG 3350, 200 mM sodium potassium tartrate, 10 mM trimethylamine hydrochloride. Particulars: both partners purified.
The target of assay [4] is T2, polo-box domain of Cdc5 pre-incubated with the Dbf4 peptide (Cdc5-Dbf4) (Saccharomyces cerevisiae | S. cerevisiae, UniProt P32562 418-705).
T2 construct: Cdc5, Polo-like kinase of Saccharomyces cerevisiae, residues 418-705; Dbf4 of budding yeast, residues 73-96
Kind of assay: saturation-transfer difference (STD) NMR and 1D 1H NMR chemical shifts; ternary sample: 20 µM Cdc5 with both Dbf4 and Spc72^P peptides (500 µM); 20 mM sodium phosphate pH 7.0, 200 mM NaCl, 20 mM EDTA, >99% D2O; 298 K. Particulars: both partners purified.

Square brackets hold non-standard residues; d marks the D form. Ends that are not written are not given here. pS = N[C@@H](COP(=O)(O)O)C(=O)O

In the case of `O=[N+]([O-])c1cc[n+]([O-])c2ccccc12` [4-NQO, 4-nitroquinoline 1-oxide], in the assay on cdc5-S630Q mutant (36–72 h), the “growth of cdc5-S630Q mutant in presence of agent” value was “very little or no growth”. For the same molecule, in the assay on cdc5-S630Q mutant, the “hypersensitivity of cdc5-S630Q mutant compared with smc5-6 cells” value was “comparable to that of cells defective in the Smc5-6 complex”.

B1: Dbf4-derived peptide (73-96) (peptide)
peptide: EKKRARIERARSIEGAVQVSKGTG
notes: Dbf4, regulatory subunit of the Dbf4-dependent kinase of budding yeast, residues 73-96; Peptide used for ITC and NMR; also called Dbf4 peptide; source: synthetic peptide, bought: GenScript
With B1, the Kd in assay [1] is around 500 nM.

B2: Spc72^P phosphorylated peptide (227-237) derived from the spindle-pole body protein Spc72 (peptide)
peptide: SLAQS[pS]PAGSQ
notes: Spc72, spindle pole body protein of budding yeast, residues 227-237; Peptide used for crystallization; also called Spc72^P phosphopeptide; source: synthetic peptide, bought: GenScript
Regarding B2, in assay [2], the binding result was “binds”.

B3: Dbf4-derived peptide (76-96) from the polo-interacting region of Dbf4 (peptide)
peptide: RARIERARSIEGAVQVSKGTG
notes: Dbf4, regulatory subunit of the Dbf4-dependent kinase of budding yeast, residues 76-96; Peptide used for crystallization; also called Dbf4 peptide; source: synthetic peptide, bought: GenScript
Consider B3, for which the binding result in assay [3] is “binds”.

B4: Spc72^P phosphorylated peptide (printed as 222-237) (peptide)
peptide: DKEEFLSLAQS[pS]PAGSQ
notes: Spc72, spindle pole body protein of budding yeast; Peptide used for ITC and NMR; also called Scp72^P; Spc72^P peptide; source: synthetic peptide, bought: GenScript
Take B4: the binding result in assay [4] and in assay [1] was “binds” in each case.
